Data reported in patent US20210401786A1, “COMPOSITION FOR TREATING BURN WOUNDS” (priority 2020, published 2021).

Tested on: human non-healing burn wounds
Assay: Wound healing in patients with non-healing burn wounds
Format: in vivo
Conditions: for Wound healing time (X +/− S): patients, completely healed cases
Experimental: In this application, medical records of 430 patients, including 368 male and 60 female, aged from 1 to 70 years old, with a clinical diagnosis of at least one non-healing burn wound were collected. The burn injury includes 150 cases of hydrothermal burns, 167 cases of flame burns, 84 cases of electric burns, and 29 cases of chemical burns. […] The non-healing wounds of 430 patients were treated with the composition of Example 3 of the present invention (49 cases), surgery (197 cases), and conventional treatment (rhEGF therapy) (184 cases). There were no statistically significant differences observed among the groups in terms of gender, age, and wound area (p>0.05) (The comparison results of the differences in terms of various factors are shown in Tables 5, 6 and 7).
Among the 49 patients in the present invention, the wound was completely healed in 31 cases (63.27%), effectively healed in 15 cases (30.61%), improved in 2 cases (4.08%), and not healed in 1 case (2.04%). Among the 197 patients in the surgery group, the wound was completely healed in 152 cases (77.15%), effectively healed in 39 cases (19.80%), improved in 6 cases (3.05%), and not healed in 0 case (0%). Among the 184 patients in the conventional treatment group, the wound was completely healed in 96 cases (52.17%), effectively healed in 56 cases (30.43%), improved in 24 cases (13.05%), and not healed in 8 cases (4.35%). The effect of the present invention on wound healing is analyzed by the total effective rate after receiving different treatments. The total effective rate=(the number of completely healed cases+the number of effectively healed cases)/total number of cases.
The wound healing time of the present invention group, surgery group and conventional dressing group is 19.87±9.10 days, 22.71±11.77 days and 36.71±10.60 days, respectively. […] There is no significant difference in wound healing time between the present invention group and the surgery group (P>0.05).

[1] = patients with non-healing burn wounds
[2] = patients with non-healing burn wounds, listed as conventional treatment

B1: Conventional treatment: conventional treatment (rhEGF therapy) of patients' non-healing burn wounds (protein, UniProt P01133 23-1207, looked up)
Pro-epidermal growth factor: PQHWSCPEGTLAGNGNSTCVGPAPFLIFSHGNSIFRIDTEGTNYEQLVVDAGVSVIMDFHYNEKRIYWVDLERQLLQRVFLNGSRQERVCNIEKNVSGMAINWINEEVIWSNQQEGIITVTDMKGNNSHILLSALKYPANVAVDPVERFIFWSSEVAGSLYRADLDGVGVKALLETSEKITAVSLDVLDKRLFWIQYNREGSNSLICSCDYDGGSVHISKHPTQHNLFAMSLFGDRIFYSTWKMKTIWIANKHTGKDMVRINLHSSFVPLGELKVVHPLAQPKAEDDTWEPEQKLCKLRKGNCSSTVCGQDLQSHLCMCAEGYALSRDRKYCEDVNECAFWNHGCTLGCKNTPGSYYCTCPVGFVLLPDGKRCHQLVSCPRNVSECSHDCVLTSEGPLCFCPEGSVLERDGKTCSGCSSPDNGGCSQLCVPLSPVSWECDCFPGYDLQLDEKSCAASGPQPFLLFANSQDIRHMHFDGTDYGTLLSQQMGMVYALDHDPVENKIYFAHTALKWIERANMDGSQRERLIEEGVDVPEGLAVDWIGRRFYWTDRGKSLIGRSDLNGKRSKIITKENISQPRGIAVHPMAKRLFWTDTGINPRIESSSLQGLGRLVIASSDLIWPSGITIDFLTDKLYWCDAKQSVIEMANLDGSKRRRLTQNDVGHPFAVAVFEDYVWFSDWAMPSVMRVNKRTGKDRVRLQGSMLKPSSLVVVHPLAKPGADPCLYQNGGCEHICKKRLGTAWCSCREGFMKASDGKTCLALDGHQLLAGGEVDLKNQVTPLDILSKTRVSEDNITESQHMLVAEIMVSDQDDCAPVGCSMYARCISEGEDATCQCLKGFAGDGKLCSDIDECEMGVPVCPPASSKCINTEGGYVCRCSEGYQGDGIHCLDIDECQLGEHSCGENASCTNTEGGYTCMCAGRLSEPGLICPDSTPPPHLREDDHHYSVRNSDSECPLSHDGYCLHDGVCMYIEALDKYACNCVVGYIGERCQYRDLKWWELRHAGHGQQQKVIVVAVCVVVLVMLLLLSLWGAHYYRTQKLLSKNPKNPYEESSRDVRSRRPADTEDGMSSCPQPWFVVIKEHQDLKNGGQPVAGEDGQAADGSMQPTSWRQEPQLCGMGTEQGCWIPVSSDKGSCPQVMERSFHMPSYGTQTLEGGVEKPHSLLSANPLWQQRALDPPHQMELTQ
modifications: Pro-epidermal growth factor
notes: conventional treatment (rhEGF therapy) of patients' non-healing burn wounds
- Total effective rate (%) ((completely healed + effectively healed cases)/total number of cases): 82.61% ^
- Completely healed case (%) [1]: (52.17%)
- Completely healed case, number [1]: 96 cases
- Effectively healed case (%) [1]: (30.43%)
- Effectively healed case, number [1]: 56 cases
- Improved case (%) [1]: (13.05%)
- Improved case, number [1]: 24 cases
- Not healed case (%) [1]: (4.35%)
- Not healed case, number [1]: 8 cases
- Completely healed case (%) [2]: 52.17%
- Effectively healed case (%) [2]: 30.43%
- Improved case (%) [2]: 13.05%
- Not healed case (%) [2]: 4.35%
- Wound healing time (X +/− S): 36.71 ± 10.60^ days
- Wound healing time (X +/− S) (listed as conventional dressing): 36.71 ± 10.60 days
